Assay results reported in US10828372B2, “Compositions and methods for the inhibition of fibrosis” (WISCONSIN ALUMNI RESEARCH FOUNDATION, priority 2017, dated 2020).
Values joined by “and” are separate entries in the source; they are usually repeats but may differ in a detail not shown here. Equal values may be shown once.

How the values were obtained:
[1] = test system: Alexa 488-labeled human plasma FN; assay: Matrix Assembly in vitro Assay (MAA), A488-FN deposition by AH1F fibroblasts; type: cell-based; details: 24 hours, viability-normalized fluorescence, n=4, FUD run alongside each conjugate
Method: Matrix Assembly Assay: The matrix assembly assay was conducted in the 96-well plate format as described in the art. AH1F human skin fibroblast cells resuspended in 2% fetal bovine serum were added to each well for a density of 60,000 cells per well. A 1 hr incubation period at 37° C. followed to allow cell adhesion and spreading. FUD, PEG-FUD, or PEG-mFUD were added to each well following incubation. Immediately, Alexa Fluor® 488 fluorescence labeled human plasma fibronectin (A488-FN) was then added to each well for a final FN concentration of 11 μg/mL. The cells were then incubated for 24 hours at 37° C. Non-assembled FN was removed from each well by washing with Hank's Balanced Salt Solution (HBSS) containing Ca^2+ and Mg^2+. The well volume was restored to 60 μL with HBSS and a fluorescence reading from the bottom of each well was taken using a Synergy™ H1 (Biotek) plate reader (excitation: 485 nm, Emission: 538 nm). Cell viability was quantified using CellTiter-Glo® cell viability assay using the manufacturer's protocol. A 30 μL aliquot of HBSS was removed from each well and was replaced with 30 μL of the luminescence reagent prepared shortly beforehand. Luminescence was quantified using the same plate reader. The average of fluorescence values of a no A488FN or inhibitor control group were routinely subtracted from the readings of each well and were normalized using each well's corresponding luminescence value. Lastly, the cell viability normalized fluorescence values were expressed as a percentage of the 0 nM drug control group. The final results were processed using Graphpad Prism 7.0 software. IC50 values were extracted using a four-parameter dose-response curve function. Student's t test was used to determine significance of differences among peptides at a given drug concentration.
The PEG-FUD FN fibrillogenesis inhibitory performance was evaluated in vitro using the matrix assembly assay (MAA). The methodology of this assay is depicted in FIG. 8. The MAA quantifies ECM deposition of exogenous AlexaFluor® 488-labeled FN (A488FN) by a confluent monolayer of fibroblasts after an incubation period by measuring fluorescence of deposited FN. In this study, the performance of PEG-FUD peptides was compared to that of FUD and the PEG-mFUD control peptide using the AH1F human foreskin fibroblast cell line.

[2] = Fluorescence imaging (IVIS) of subcutaneous dose absorption; type: in vivo, mouse
Method: Preparation of Animal Experiment FUD and 10-40 kDa PEG-FUD Drug Dose: A 12.5 mg FUD equivalents per kg of mouse weight drug dose spiked with 1.5% Cy5 labeled drug was prepared by mixing an appropriate amount of unlabeled and labeled drug in a conical vial. The drug was then dialyzed ON into phosphate buffered saline (pH 7.4) using a 3000 MWCO dialysis membrane. The total volume of the dose was reduced to the appropriate value using a 3000 MWCO Amicon® Ultra-15 centrifugal unit. The final concentration of the drug was determined using a UV-vis spectrophotometer and the 646 nm extinction coefficient of Cy5, ε=271000 L·mol^−1·cm^−1.
10 week old mice weighing 20-23 g were placed under 2% isoflurane anesthesia and positioned on their abdomen inside of an IVIS Spectrum In Vivo Imaging System. A 100 uL dose containing 0.27 mg (12.5 mg/kg) of FUD or FUD equivalents of 10-40 kDa PEG-FUD that was spiked with 1.5% Cy5 labeled drug was delivered subcutaneously between the shoulder blades of the animals (n=3 per treatment group). The animals were imaged before the injection, immediately following injection, and at time points of 30 minutes and 1, 3, 6, 12, 24, 36, and 48 hours. The animals were sacrificed following the last time point and their organs were harvested for ex vivo fluorescence imaging and drug extraction and quantification. LivingImage® (PerkinElmer) software was used to analyze the views of each animal group. The autodraw feature of the software set to a 5% threshold was used to create unique regions of interest (ROI) on each animal at t=30 mins views that were consistently applied to each subsequent time point views to quantify drug levels present at the site of injection. Baseline autoflorescence values calculated from ROIs applied to “before injection” views were subtracted from the values of each time point's animals. The ROI values obtained from the t=30 mins views were used to calculate % dose remaining for each subsequent time point.

Alexa 488-labeled human plasma FN, sequence (P02751 32-608 limits assumed): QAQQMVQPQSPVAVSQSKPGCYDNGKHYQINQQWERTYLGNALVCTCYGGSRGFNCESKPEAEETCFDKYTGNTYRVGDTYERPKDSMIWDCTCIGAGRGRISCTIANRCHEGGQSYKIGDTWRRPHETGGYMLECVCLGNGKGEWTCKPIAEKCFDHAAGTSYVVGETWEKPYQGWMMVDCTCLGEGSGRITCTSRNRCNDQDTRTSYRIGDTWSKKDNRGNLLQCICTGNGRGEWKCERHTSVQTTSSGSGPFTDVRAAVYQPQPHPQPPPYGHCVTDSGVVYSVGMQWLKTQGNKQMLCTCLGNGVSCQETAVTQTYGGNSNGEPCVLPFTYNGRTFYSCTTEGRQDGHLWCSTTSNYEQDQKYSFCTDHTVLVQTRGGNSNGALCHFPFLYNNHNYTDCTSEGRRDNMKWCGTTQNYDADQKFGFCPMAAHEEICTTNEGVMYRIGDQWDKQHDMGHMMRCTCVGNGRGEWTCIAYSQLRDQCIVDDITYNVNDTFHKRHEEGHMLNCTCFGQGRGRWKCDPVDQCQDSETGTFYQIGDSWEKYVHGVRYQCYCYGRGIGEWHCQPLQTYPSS

## FUD: 49 amino acid FUD peptide, SEQ ID NO: 1, recombinantly expressed, His-tag removed; inhibitor of fibronectin fibrillogenesis (KDQSPLAGESGETEYITEVYGNQQNPVDIDKKLPNETGFSGNMVETEDT; human) [reference compound]
[1]
  IC50: 13 nM and 26 nM and 19 nM
[2]; s.c. 12.5 mg/kg FUD equivalents, 24 hours
  % dose remaining at the site of injection after 24 hours: 0.3%
[2]; s.c. 12.5 mg/kg, spiked with 1.5% Cy5 labeled drug, nude mice
  apparent half-life at the site of injection: 35 min
